Source: patent US20030077290A1 (PHADIA, published 2003)

Target: basophil-bound IgE of a grass pollen allergic patient
Test: cell-based or functional assay

GKATTEEQKLIEDINASFRAAMATTANVPPADK [rPhl p 6 aa 1-33]
reduction of histamine release compared to complete rPhl p 6: ~1000 fold
